The values that follow are results of earlier work, collected in patent US11739305B2, “Sialyltransferase variants having neosialidase activity” (The Regents of the University of California, priority 2017, dated 2023).

Read-outs that look alike come from different tables or passages of the source.

What is called Km is the substrate concentration at which the rate is half of its maximum. In general, kcat refers to the number of substrate molecules converted per active site and unit of time at saturation.

For data set [1] the following is noted: reported previously using Neu5Acα2-6GalβpNP as the substrate (Li, Chen, et al. Mol. BioSyst. 2011).
For data set [2] the following is noted: wild-type, reported previously (Cheng, Chen, et al. Glycobiology 2010).
For data set [3] the following is noted: CMP-Neu5Ac hydrolysis, wild-type, reported previously (McArthur, Chen, et al. Org. Biomol. Chem. 2017).

B1: hNEU2: human NEU2, an α2-3/6/8-sialidase (protein, UniProt Q9Y3R4 1-380, looked up)
Sialidase-2: MASLPVLQKESVFQSGAHAYRIPALLYLPGQQSLLAFAEQRASKKDEHAELIVLRRGDYDAPTHQVQWQAQEVVAQARLDGHRSMNPCPLYDAQTGTLFLFFIAIPGQVTEQQQLQTRANVTRLCQVTSTDHGRTWSSPRDLTDAAIGPAYREWSTFAVGPGHCLQLHDRARSLVVPAYAYRKLHPIQRPIPSAFCFLSHDHGRTWARGHFVAQDTLECQVAEVETGEQRVVTLNARSHLRARVQAQSTNDGLDFQESQLVKKLVEPPPQGCQGSVISFPSPRSGPGSPAQWLLYTHPTHSWQRADLGAYLNPRPPAPEAWSEPVLLAKGSCAYSDLQSMGTGPDGSPLFGCLYEANDYEEIVFLMFTLKQAFPAEYLPQ
For the molecule B1, in data set [1], the Km was 2.1 ± 0.2 mM and the turnover number (kcat) was 10.8 ± 0.6 min⁻¹.

B2: Pd2,6ST: Photobacterium damselae α2-6-sialyltransferase, wild-type enzyme (GenBank BAA25316.1, SEQ ID NO: 1) (protein, listed as Photobacterium damselae)
chain: MKKILTVLSIFILSACNSDNTSLKETVSSNSADVVETETYQLTPIDAPSSFLSHSWEQTCGTPILNESDKQAISFDFVAPELKQDEKYCFTFKGITGDHRYITNTTLTVVAPTLEVYIDHASLPSLQQLIHIIQAKDEYPSNQRFVSWKRVTVDADNANKLNIHTYPLKGNNTSPEMVAAIDEYAQSKNRLNIEFYTNTAHVFNNLPPIIQPLYNNEKVKISHISLYDDGSSEYVSLYQWKDTPNKIETLEGEVSLLANYLAGTSPDAPKGMGNRYNWHKLYDTDYYFLREDYLDVEANLHDLRDYLGSSAKQMPWDEFAKLSDSQQTLFLDIVGFDKEQLQQQYSQSPLPNFIFTGTTTWAGGETKEYYAQQQVNVINNAINETSPYYLGKDYDLFFKGHPAGGVINDIILGSFPDMINIPAKISFEVLMMTDMLPDTVAGIASSLYFTIPADKVNFIVFTSSDTITDREEALKSPLVQVMLTLGIVKEKDVLFWADHKVNSMEVAIDEACTRIIAKRQPTASDLRLVIAIIKTITDLERIGDVAESIAKVALESFSNKQYNLLVSLESLGQHTVRMLHEVLDAFARMDVKAAIEVYQEDDRIDQEYESIVRQLMAHMMEDPSSIPNVMKVMWAARSIERVGDRCQNICEYIIYFVKGKDVRHTKPDDFGTMLD
As for B2, the Km is 7.6 ± 0.5 mM in data set [2] and 45 ± 14 mM in data set [3]. In addition, the kcat is 8.2 ± 0.3 min⁻¹ in data set [2] and “(4.0 ± 0.9) × 10^2 min^−1” in data set [3].
